Source: patent US20130011378A1, “Stable formulations of a hyaluronan-degrading enzyme” (priority 2011, published 2013)

Assay: RP-HPLC: insulin apparent solubility / percent recovery
Settings: for Solubility of Lispro, % remaining of the original concentration: 7 days at 2-8° C.
Outline: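 Vial samples withdrawn at each time point, centrifuged, held at 4 °C, run in duplicate by RP-HPLC. Apparent solubility = combined insulin main and desamido peak areas as percent versus standards/initial formulation; purity = main insulin peak as percent of all insulin species.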

With “insulin Lispro: insulin analog LysB28, ProB29; SEQ ID NO:103 and 148” the “Solubility of Lispro, % remaining of the original concentration” value (0.2% methylparaben + […] m-cresol, pH 6.6, NaCl 50 mM) was 42.0%, the “Solubility of Lispro, % remaining of the original concentration” value (0.2% methylparaben + […] m-cresol, pH 6.6, NaCl 80 mM) was 28.2% and the “Solubility of Lispro, % remaining of the original concentration” value (0.2% methylparaben + […] m-cresol, pH 6.6, NaCl 110 mM) was 24.1%. For the same substance, the “Solubility of Lispro, % remaining of the original concentration” value (0.2% methylparaben + […] m-cresol, pH 6.6, NaCl 140 mM) was 25.9%, the “Solubility of Lispro, % remaining of the original concentration” value (0.2% methylparaben + […] m-cresol, pH 6.8, NaCl 50 mM) was 82.3% and the “Solubility of Lispro, % remaining of the original concentration” value (0.2% methylparaben + […] m-cresol, pH 6.8, NaCl 80 mM) was 62.6%. For the same substance, the “Solubility of Lispro, % remaining of the original concentration” value (0.2% methylparaben + […] m-cresol, pH 6.8, NaCl 110 mM) was 47.8%, the “Solubility of Lispro, % remaining of the original concentration” value (0.2% methylparaben + […] m-cresol, pH 6.8, NaCl 140 mM) was 42.0% and the “Solubility of Lispro, % remaining of the original concentration” value (0.2% methylparaben + […] m-cresol, pH 7.0, NaCl 50 mM) was 95.3%. For the same substance, the “Solubility of Lispro, % remaining of the original concentration” value (0.2% methylparaben + […] m-cresol, pH 7.0, NaCl 80 mM) was 98.1%, the “Solubility of Lispro, % remaining of the original concentration” value (0.2% methylparaben + […] m-cresol, pH 7.0, NaCl 110 mM) was 94.1% and the “Solubility of Lispro, % remaining of the original concentration” value (0.2% methylparaben + […] m-cresol, pH 7.0, NaCl 140 mM) was 65.6%. The “Solubility of Lispro, % remaining of the original concentration” value (0.2% methylparaben + […] m-cresol, pH 7.2, NaCl 50 mM) was 95.7%, the “Solubility of Lispro, % remaining of the original concentration” value (0.2% methylparaben + […] m-cresol, pH 7.2, NaCl 80 mM) was 97.9% and the “Solubility of Lispro, % remaining of the original concentration” value (0.2% methylparaben + […] m-cresol, pH 7.2, NaCl 110 mM) was 99.6%. The “Solubility of Lispro, % remaining of the original concentration” value (0.2% methylparaben + […] m-cresol, pH 7.2, NaCl 140 mM) was 98.0%, the “Solubility of Lispro, % remaining of the original concentration” value (0.2% methylparaben + […] m-cresol, pH 7.4, NaCl 50 mM) was 95.6% and the “Solubility of Lispro, % remaining of the original concentration” value (0.2% methylparaben + […] m-cresol, pH 7.4, NaCl 80 mM) was 98.2%. The “Solubility of Lispro, % remaining of the original concentration” value (0.2% methylparaben + […] m-cresol, pH 7.4, NaCl 110 mM) was 99.9%, the “Solubility of Lispro, % remaining of the original concentration” value (0.2% methylparaben + […] m-cresol, pH 7.4, NaCl 140 mM) was 98.5% and the “Solubility of Lispro, % remaining of the original concentration” value (0.2% methylparaben + […] m-cresol, pH 7.6, NaCl 50 mM) was 95.7%. The “Solubility of Lispro, % remaining of the original concentration” value (0.2% methylparaben + […] m-cresol, pH 7.6, NaCl 80 mM) was 98.3%, the “Solubility of Lispro, % remaining of the original concentration” value (0.2% methylparaben + […] m-cresol, pH 7.6, NaCl 110 mM) was 100.2% and the “Solubility of Lispro, % remaining of the original concentration” value (0.2% methylparaben + […] m-cresol, pH 7.6, NaCl 140 mM) was 98.8%. The “Solubility of Lispro, % remaining of the original concentration” value (0.2% phenol + […] m-cresol, pH 6.6, NaCl 50 mM) was 52.8%, the “Solubility of Lispro, % remaining of the original concentration” value (0.2% phenol + […] m-cresol, pH 6.6, NaCl 80 mM) was 32.8% and the “Solubility of Lispro, % remaining of the original concentration” value (0.2% phenol + […] m-cresol, pH 6.6, NaCl 110 mM) was 26.0%. The “Solubility of Lispro, % remaining of the original concentration” value (0.2% phenol + […] m-cresol, pH 6.8, NaCl 50 mM) was 91.4%, the “Solubility of Lispro, % remaining of the original concentration” value (0.2% phenol + […] m-cresol, pH 6.8, NaCl 80 mM) was 65.1% and the “Solubility of Lispro, % remaining of the original concentration” value (0.2% phenol + […] m-cresol, pH 6.8, NaCl 110 mM) was 44.9%. The “Solubility of Lispro, % remaining of the original concentration” value (0.2% phenol + […] m-cresol, pH 6.8, NaCl 140 mM) was 40.4%, the “Solubility of Lispro, % remaining of the original concentration” value (0.2% phenol + […] m-cresol, pH 7.0, NaCl 50 mM) was 97.4% and the “Solubility of Lispro, % remaining of the original concentration” value (0.2% phenol + […] m-cresol, pH 7.0, NaCl 80 mM) was 95.5%. For the same substance, the “Solubility of Lispro, % remaining of the original concentration” value (0.2% phenol + […] m-cresol, pH 7.0, NaCl 110 mM) was 75.2%, the “Solubility of Lispro, % remaining of the original concentration” value (0.2% phenol + […] m-cresol, pH 7.0, NaCl 140 mM) was 65.3% and the “Solubility of Lispro, % remaining of the original concentration” value (0.2% phenol + […] m-cresol, pH 7.2, NaCl 50 mM) was 97.6%. For the same substance, the “Solubility of Lispro, % remaining of the original concentration” value (0.2% phenol + […] m-cresol, pH 7.2, NaCl 80 mM) was 97.4%, the “Solubility of Lispro, % remaining of the original concentration” value (0.2% phenol + […] m-cresol, pH 7.2, NaCl 110 mM) was 95.2% and the “Solubility of Lispro, % remaining of the original concentration” value (0.2% phenol + […] m-cresol, pH 7.2, NaCl 140 mM) was 90.8%. The “Solubility of Lispro, % remaining of the original concentration” value (0.2% phenol + […] m-cresol, pH 7.4, NaCl 50 mM) was 97.7%, the “Solubility of Lispro, % remaining of the original concentration” value (0.2% phenol + […] m-cresol, pH 7.4, NaCl 80 mM) was 97.6% and the “Solubility of Lispro, % remaining of the original concentration” value (0.2% phenol + […] m-cresol, pH 7.4, NaCl 110 mM) was 97.0%. The “Solubility of Lispro, % remaining of the original concentration” value (0.2% phenol + […] m-cresol, pH 7.4, NaCl 140 mM) was 96.9%, the “Solubility of Lispro, % remaining of the original concentration” value (0.2% phenol + […] m-cresol, pH 7.6, NaCl 50 mM) was 97.5% and the “Solubility of Lispro, % remaining of the original concentration” value (0.2% phenol + […] m-cresol, pH 7.6, NaCl 80 mM) was 97.7%. For the same substance, the “Solubility of Lispro, % remaining of the original concentration” value (0.2% phenol + […] m-cresol, pH 7.6, NaCl 110 mM) was 97.3%, the “Solubility of Lispro, % remaining of the original concentration” value (0.2% phenol + […] m-cresol, pH 7.6, NaCl 140 mM) was 96.8% and the “time insulin Lispro stable (soluble)” value (2-8° C., pH 7.0, 50 mM NaCl) was 5 months. The Solubility (2-8° C., pH 7.0, after 1 week at 80, 110 or 140 mM NaCl) was “below 65%”, the “time insulin Lispro stable (soluble)” value (2-8° C., pH 7.6, 140 mM NaCl) was 2 weeks and the “time insulin Lispro stable (soluble)” value (2-8° C., pH 7.6, 50 and 80 mM NaCl, […] m-cresol, […] phenol) was “at least 12 months”. The “Solubility of Lispro, % remaining of the original concentration” value ([…] phenol + […] m-cresol, pH 6.6, NaCl 50 mM) was 60.3%, the “Solubility of Lispro, % remaining of the original concentration” value ([…] phenol + […] m-cresol, pH 6.6, NaCl 80 mM) was 43.3% and the “Solubility of Lispro, % remaining of the original concentration” value ([…] phenol + […] m-cresol, pH 6.6, NaCl 110 mM) was 24.2%. The “Solubility of Lispro, % remaining of the original concentration” value ([…] phenol + […] m-cresol, pH 6.6, NaCl 140 mM) was 27.7%, the “Solubility of Lispro, % remaining of the original concentration” value ([…] phenol + […] m-cresol, pH 6.8, NaCl 50 mM) was 93.6% and the “Solubility of Lispro, % remaining of the original concentration” value ([…] phenol + […] m-cresol, pH 6.8, NaCl 80 mM) was 60.8%. The “Solubility of Lispro, % remaining of the original concentration” value ([…] phenol + […] m-cresol, pH 6.8, NaCl 110 mM) was 44.9%, the “Solubility of Lispro, % remaining of the original concentration” value ([…] phenol + […] m-cresol, pH 6.8, NaCl 140 mM) was 35.9% and the “Solubility of Lispro, % remaining of the original concentration” value ([…] phenol + […] m-cresol, pH 7.0, NaCl 50 mM) was 98.7%. The “Solubility of Lispro, % remaining of the original concentration” value ([…] phenol + […] m-cresol, pH 7.0, NaCl 80 mM) was 96.4%, the “Solubility of Lispro, % remaining of the original concentration” value ([…] phenol + […] m-cresol, pH 7.0, NaCl 110 mM) was 77.0% and the “Solubility of Lispro, % remaining of the original concentration” value ([…] phenol + […] m-cresol, pH 7.0, NaCl 140 mM) was 61.2%. The “Solubility of Lispro, % remaining of the original concentration” value ([…] phenol + […] m-cresol, pH 7.2, NaCl 50 mM) was 100.5%, the “Solubility of Lispro, % remaining of the original concentration” value ([…] phenol + […] m-cresol, pH 7.2, NaCl 80 mM) was 99.2% and the “Solubility of Lispro, % remaining of the original concentration” value ([…] phenol + […] m-cresol, pH 7.2, NaCl 110 mM) was 97.3%. The “Solubility of Lispro, % remaining of the original concentration” value ([…] phenol + […] m-cresol, pH 7.2, NaCl 140 mM) was 93.1%, the “Solubility of Lispro, % remaining of the original concentration” value ([…] phenol + […] m-cresol, pH 7.4, NaCl 50 mM) was 100.8% and the “Solubility of Lispro, % remaining of the original concentration” value ([…] phenol + […] m-cresol, pH 7.4, NaCl 80 mM) was 101.8%. For the same substance, the “Solubility of Lispro, % remaining of the original concentration” value ([…] phenol + […] m-cresol, pH 7.4, NaCl 110 mM) was 100.7%, the “Solubility of Lispro, % remaining of the original concentration” value ([…] phenol + […] m-cresol, pH 7.4, NaCl 140 mM) was 98.4% and the “Solubility of Lispro, % remaining of the original concentration” value ([…] phenol + […] m-cresol, pH 7.6, NaCl 50 mM) was 100.9%. For the same substance, the “Solubility of Lispro, % remaining of the original concentration” value ([…] phenol + […] m-cresol, pH 7.6, NaCl 80 mM) was 102.1%, the “Solubility of Lispro, % remaining of the original concentration” value ([…] phenol + […] m-cresol, pH 7.6, NaCl 110 mM) was 101.6% and the “Solubility of Lispro, % remaining of the original concentration” value ([…] phenol + […] m-cresol, pH 7.6, NaCl 140 mM) was 101.3%.
